T1: TR5 (human, UniProt O14798 30-242)
T1 construct: Antigen coated in the specificity phage ELISA; also called TRAIL-R3; DcR1
T1 chain: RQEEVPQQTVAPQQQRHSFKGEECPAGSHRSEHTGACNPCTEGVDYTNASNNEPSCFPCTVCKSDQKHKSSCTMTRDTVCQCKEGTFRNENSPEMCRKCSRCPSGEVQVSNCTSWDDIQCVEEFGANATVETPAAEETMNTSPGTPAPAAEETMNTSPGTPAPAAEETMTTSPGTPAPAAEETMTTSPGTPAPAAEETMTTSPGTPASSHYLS

T2: TR10 (human, UniProt Q9UBN6 56-204, limits assumed)
T2 construct: Antigen coated in the specificity phage ELISA; also called TRAIL-R4; DcR2
T2 sequence: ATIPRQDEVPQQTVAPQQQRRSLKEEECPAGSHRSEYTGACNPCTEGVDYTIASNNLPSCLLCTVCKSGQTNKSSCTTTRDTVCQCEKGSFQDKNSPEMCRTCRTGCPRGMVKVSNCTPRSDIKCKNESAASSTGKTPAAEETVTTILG

T3: TR4:Fc receptor (human, UniProt O00220 109-240)
T3 construct: also called TR4-Fc fusion protein; not shown: Fc region
T3 chain: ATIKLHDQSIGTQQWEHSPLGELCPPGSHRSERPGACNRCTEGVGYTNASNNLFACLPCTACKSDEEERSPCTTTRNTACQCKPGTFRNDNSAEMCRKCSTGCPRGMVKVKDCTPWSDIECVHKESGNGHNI


How the values were obtained:
TR7 = biological target: T4, TR7 (human, UniProt O14763 52-184, limits assumed); assay: specificity phage ELISA, antigen coated at 1 ug/ml
T4 construct: Antigen coated in the specificity phage ELISA; also called TRAIL-R2; DR5
Method: (§1) Flexible 96-well plates (Falcon) were coated overnight at 4° C. with each antigen (1 μg/ml). All antigens were coated in PBS. After coating, the solutions were removed from the wells, and the plates were blocked for 1 hour at room temperature in MPBS. The plates were washed 3 times with PBS and then 50 μl of pre-blocked phage was added to each well. The plates were incubated at room temperature for 1 hour and then washed with 3 changes of PBST followed by 3 changes of PBS.
(§2) To each well, 50 μl of an anti-M13-HRP conjugate (Pharmacia) at a 1 in 5000 dilution in MPBS was added and the plates incubated at room temperature for 1 hour. Each plate was washed three times with PBST followed by three times with PBS.
(§3) Fifty μl of TMB substrate was then added to each well, and incubated at room temperature for 30 minutes or until colour development. The reaction was stopped by the addition of 25 μl of 0.5 M H₂SO₄. The signal generated was measured by reading the absorbance at 450 nm (A₄₅₀) using a microtitre plate reader (Bio-Rad 3550).

TR5 = biological target: T1, TR5; assay: specificity phage ELISA, antigen coated at 1 ug/ml
Method: as §1, §2, §3

TR10 = biological target: T2, TR10; assay: specificity phage ELISA, antigen coated at 1 ug/ml
Method: as §1, §2, §3

BLyS = biological target: T5, BLyS (human, UniProt Q9Y275 134-285, limits assumed); assay: specificity phage ELISA, antigen coated at 1 ug/ml
T5 construct: Unrelated control antigen in the specificity phage ELISA
Method: as §1, §2, §3

TR4:Fc receptor = biological target: T3, TR4:Fc receptor; assay: SPR (BIAcore 2000), TR4:Fc amine-coupled on CM5 chip, IgG1 as analyte, double reference subtraction, 1:1 Langmuir fit, 25 C
Method: The optimal pH for this coupling was analyzed using preconcentration experiments ranging from pH 4-7 and was determined to be pH 4.0 for both the TR4 and the TR2 receptor. Amine coupling was used to covalently bind each receptor (fc) to the dextran matrix on the CM5 sensor chip. The immobilization experiment was performed using the manual injection mode. The entire immobilization experiment was performed at 5 μL/min. A 3-minute injection of EDC/NHS (1:1) was applied to each flow cell to active esters. A target level of ˜200RU was set as the goal for all each flow cell. Fc-fusion receptors, TR4 and TR2 at 5 μg/mL, were immobilized onto individual flow cells of a sensor chip. The amount applied varied from 8-14 μL. A 3-minute ethanolamine injection completed the immobilization experiment by inactivating the esters.
The kinetics cycles were performed as follows: The flow rate for the entire cycle was 25 μL/minute with the flow path including both the control (TR2) and experimental (TR4) flow cell at all times. A 1-minute buffer injection was applied to stabilize the baseline. The purified antibody (IgG1 antibody comprising the VH and VL domains of each of the T1014A04, T1014G03, T1014F08, and T14G04 scFvs) was diluted from 10 μg/mL (65 nM) to 0.115 μg/mL (0.75 nM) in running buffer and tested in duplicate. Each concentration was in contact with the control (TR2) and the experimental (TR4) flow cell during a 4-minute association and a 10-minute dissociation phase. Regeneration was performed using 25 mM NaOH from 5-12 μL depending on the sample concentration.
A double-reference subtraction was performed, which refers to the control flow cell subtraction for every cycle, in addition to a buffer cycle subtraction. The 1:1 Langmuir model was used for all evaluation fitting.

binding result (TR7) | binding result (TR5) | binding result (TR10) | binding result (BLyS) | Kd (TR4:Fc receptor) | Binder
no binding | no binding | no binding | no binding |  | scFv T1014B11 (scFv) scFv: EVQLVQSGAEVKKPGASVKVSCKISGDSFTAYFIHWLRQAPGEGLEWMGWFNPISGTAGSPQKFHGRVAMTRDTSISTAYMELTRLASDDTAIYYCARQHHSNTFDPWGQGTLVTVSSGGGGSGGGGSGGGGSAQSALTQPASVSGSPGQSITISCTGTNSDVGGYNYVSWYQQHPGKAPKLMIYEVNNRPSGVSNRFSGSKSGNTASLTISGLQADDEADYYCSSYTTSNTWVFGGGTKLTVLG
no binding | no binding | no binding | no binding |  | scFv T1014A04 (scFv) scFv: EVQLVQSGADVKRPGASVKVSCKISGDSFNAYFIHWVRQAPGQGLEWMGWFNPDSGTADSAQKFHGRVTMTRDTSSSTAFLELSRLRSDDTAVYYCVRQHRGNTFAPWGRGTMVTVSSGGGGSGGGGSGGGGSAQSVLTQPPSASGSPGQSVTISCTGTTSDVGGYNYVSWYQQHPGKAPKLMIYGVNQRPSGVPDRFSGSKSGNTASLTVSGLQAEDEADYYCSSYAGSNNWVFGGGTKLTVLG
 |  |  |  | 0.554 nM | IgG1 antibody comprising the VH and VL domains of the T1014G03 scFv (antibody, V domains shown, Whole IgG1) VH: EVQLVQSGAEVKMPGASVKLSCRVSGDTFTAYFIHWVRQAPGQGLEWMGWFNPISGTAGSAEKFRGRVAMTRDTSISTAYMELNRLTFDDTAVYYCARQHRGNTFDPWGQGTLVTVSS VL: QSALTQPASVSGSPGQSITISCTGTSSDIGAYKYVSWYQQHPGKAPKLVIYEVSNRPSGVSSRFSGSKSGQTASLTISGLQADDEADYYCNSYQGYNTWVFGGGTKVTVLG
no binding | no binding | no binding | no binding |  | scFv T1014G03 (scFv) scFv: EVQLVQSGAEVKMPGASVKLSCRVSGDTFTAYFIHWVRQAPGQGLEWMGWFNPISGTAGSAEKFRGRVAMTRDTSISTAYMELNRLTFDDTAVYYCARQHRGNTFDPWGQGTLVTVSSGGGGSGGGGSGGGGSAQSALTQPASVSGSPGQSITISCTGTSSDIGAYKYVSWYQQHPGKAPKLVIYEVSNRPSGVSSRFSGSKSGQTASLTISGLQADDEADYYCNSYQGYNTWVFGGGTKVTVLG
 |  |  |  | 0.468 nM | IgG1 antibody comprising the VH and VL domains of the T1014A04 scFv (antibody, V domains shown, Whole IgG1; also called IgG1 format of T1014A04) VH: EVQLVQSGADVKRPGASVKVSCKISGDSFNAYFIHWVRQAPGQGLEWMGWFNPDSGTADSAQKFHGRVTMTRDTSSSTAFLELSRLRSDDTAVYYCVRQHRGNTFAPWGRGTMVTVSS VL: QSVLTQPPSASGSPGQSVTISCTGTTSDVGGYNYVSWYQQHPGKAPKLMIYGVNQRPSGVPDRFSGSKSGNTASLTVSGLQAEDEADYYCSSYAGSNNWVFGGGTKLTVLG
 |  |  |  | 0.194 nM | IgG1 antibody comprising the VH and VL domains of the T1014G04 scFv (antibody, V domains shown, Whole IgG1; also called T14G04) VH: EVQLVQSGADVKRPGASVKVSCKISGDSFTAYFIHWVRQAPGQGLEWMGWFNPDSGTADSAQKFHGRVTMTRDTSSSTAFLELSRLRSDDTAVYYCVRQHRGNTFAPWGRGTLVTVSS VL: QPVLTQPPSASGSPGQSVTISCTGTSSDVGSYEYVSWYQQHPGKAPRLMISEVNKRPSGVPNRFSGSKSGNTASLTVSGLQADDEADYYCSSYAGSNNWVFGGGTKVTVLG
no binding | no binding | no binding | no binding |  | scFv T1014G04 (scFv) scFv: EVQLVQSGADVKRPGASVKVSCKISGDSFTAYFIHWVRQAPGQGLEWMGWFNPDSGTADSAQKFHGRVTMTRDTSSSTAFLELSRLRSDDTAVYYCVRQHRGNTFAPWGRGTLVTVSSGGGGSGGGGSGGGGSAQPVLTQPPSASGSPGQSVTISCTGTSSDVGSYEYVSWYQQHPGKAPRLMISEVNKRPSGVPNRFSGSKSGNTASLTVSGLQADDEADYYCSSYAGSNNWVFGGGTKVTVLG
no binding | no binding | no binding | no binding |  | scFv T1014F08 (scFv) scFv: EVQLVQSGAEVKKPGASVKLSCRVSGDTFTAYFIHWVRQAPGQGPEWMGWFNPISGTAGSAARFRGRVAMTRDTSISTAYMELNRLTFDDTAVYYCARQHRGNTFDPWGKGTLVTVSSGGGGSGGGGSGGGGSALPVLTQPPSASGSPGQSVTISCTGTSSDVGGYKYVSWYQQHPGKAPKLMIYEVSMRPSGVPDRFSGSKSGNTASLTVSGLQAEDEADYYCASYAGSNNWVFGGGTKLTVLG
